The source of these data is patent US20110038790A1.

Assay [1] deals with mAbs 2A4, 8G9 and 7D8, told of as a group. Kind of assay: competition ELISA, value told for the three mAbs together. For orientation: In an ELISA, binding on a coated surface is turned into a signal by an enzyme label.
Assay [2] has the same target. Kind of assay: competition ELISA, told for the three mAbs together.

B1: murine AA amyloid (AA fibrils, amyloid enhancing factor extract or tissue deposits) (protein, mouse, UniProt P05367 20-94, looked up)
chain: GFFSFIGEAFQGAGDMWRAYTDMKEAGWKDGDKYFHARGNYDAAQRGPGGVWAAEKISDARESFQEFFGRGHEDT
On to B1, for which the IC50 (in general, the concentration at which inhibition is half-maximal) in assay [1] worked out at 20 mg/L.

B2: human AA amyloid (renal AA amyloid extract or tissue deposits) (protein, UniProt P0DJI8 19-94, looked up)
chain: RSFFSFLGEAFDGARDMWRAYSDMREANYIGSDKYFHARGNYDAAKRGPGGAWAAEVITDARENIQRFFGHGAEDS
In assay [2], B2 gave a fold greater IC50 than murine AEF in solution of 6 to 44 fold.
